From the DeepSol protein solubility set come the findings set out here.

This data set in a line: soluble on expression in E. coli; label from the status in PepcDB or PDB records.
Consider “MSLNTQQGLDEIERIAADETVVANVESEAEVKMAETIPVETPPAVVPSVDDSSLYIHRELSQLQFNIRVLEQALDESYPLLERLKFLLIFSSNLDEFFEIRIAGLKKQITFAREQAGADGLLPHQALARISELVHEQVSRQYRILNETLLPELAKHQIRFIRRRHWTLKIKTWVRRFFRDEIAPIITPIGLDPTHPFPLLVNKSLNFIVELEGMDAFGRDSGLAIIPAPRLLPRIIRLPEDVGGEGDNYVFLSSMIHAHADDLFPGMKVKGCYQFRLTRNADLSVDTEDVEDLARALRGELFSRRYGDAVRLEVVDTCPQNLTNYLLKQFGLSESELYKVSGPVNLTRLFSVTGLESHPELQYPPFTPAIPRLLQKKENLFNVLSKLDVLLMHPFESFTPVIDLLRQAAKDPNVLAIKQTLYRSGANSEIVDALVEAARNGKEVTAVIELRARFDEESNLQLASRLQQAGAVVIYGVVGFKTHAKMMLILRREDGELRRYAHLGTGNYHAGNARLYTDYSLLTADVALCEDLHKLFNQLIGMGKTLRMKKLLHAPFTLKKNLLEMINREAAQAALGQPAHIMAKVNSLTDPKVIRALYKASQAGVRIDLVVRGMCCLRPGIPGVSHNIHVRSIIGRFLEHSRIYYFLNGGDEKLYLSSADWMERNLDMRVETCFPVEGKKLVQRVKKELETYLTDNTQAWVLQADGSYQRLSPTGNQNPRNTQATLLEKLAAPVLTAREGHHHHHH”, for which the “soluble on expression in E. coli” value is on record as “soluble”.

As to “VPKLIDHDRRQQEIAEAVWRVIQREGIGAVSVRDVAAEAGISSGSLRHVFASKTELLAYSMRLVATRVRERAQAHASITDPWQRALAVLDEVLPLDDRRRCEMEVNLALVAESPAHPLLKDIALDAQRQLRGACAAILTGLAQWGLIAPDIDVDAEAMRLHALVDGAAMHVLLGDTDTPDTARRMIAEHLRTLL”, the “soluble on expression in E. coli” value was “not soluble”.

Regarding “MGLTEQKQKHMEQLSDKNGIISALAFDQRGALKRLMAKYQSEEPTVSQIEALKVLVAEELTPYASSMLLDPEYGLPATKVLDDNAGLLLAYEKTGYDTSSTKRLPDCLDIWSAKRIKEEGADAVKFLLYYDVDSSDEVNEEKEAYIERIGSECVAEDIPFFLEILSYDEKITDSSGIEYAKIKPRKVIEAMKVFSNPRFNIDVLKVEVPVNMDYVEGFAQGETAYNKATAAAYFREQDQATLLPYIFLSAGVPAQLFQETLVFAKEAGAKFNGVLCGRATWAGSVKEYVEKGEAGARQWLRTIGFQNIDELNKILQKTATSWKER”, the “soluble on expression in E. coli” value was “not soluble”.

Regarding “MIHVILLAAGYSSRFGSNKLLHIVDGTPMYRHALETAEQFRQRYCCEPVRLIFVTAYDDIGKQLREKDGFCLFGAAKAGNTAGRDLVVMNPNSGLGISHSIALGVKAAGADRFQEDDSLMFMVCDQPWLTPGDLLNLAACFKRSGKSIGCMAYGEQTGNPVLFSAVYREELLGLRGDTGGKAIVRRHPKEVCLCPVSNPRALEDMDELQ”, the “soluble on expression in E. coli” value is reported as “not soluble”.

In the case of “MGSDKIHHHHHHMSRDKTLFVCQECGSISNKWLGRCPDCGAWNSFVEQRVEKTVAKSQTTYATASPPQFLHAVPITDVGRSTTGLAELDRVLGGGQVPGAAILLGGEPGIGKSTLLLQTAHHLAQVSKVLYVTGEESAAQVALRAQRLGLGRSPVRVVAENHLEAIEGLLRGEQPALVLVDSIQTVYTDTLQSAPGSVAQVRECAARLVRFAKATGTTVWLVGHVTKEGAIAGPRVLEHMVDTVLYFEGEAGSPYRIVRAIKNRFGAANELGVFQMHEEGLSEVANPSQLFLSQHERPVAGSVVLATQEGTRPLLVEVQALVTPSPLANPRRVAIGLDPNRLSLLLAILHRHGDSMFFDQDVFVNIAGGIKVNEPAADLAVALALVSSFRNKPLEGRRVVFGELGLAGEVRPVAGTEARVREAVKLGFKGAILPRSDKISAAATFKLHPAGRLGDAMEAAFAAE”, the “soluble on expression in E. coli” value is given as “not soluble”.

“MMYALIVCNGSIIDYSFYRKFFDEADFIVCADGGALHLQRLGIKPDVLLGDFDSIESEHLEYYMKQNVEILKFPAEKDMTDTELAVNTAIDRGYKNIVIIGGTGTRLDHTLSNIFLLKLMLDRGVKGRIINEYNEMFLINDSTEIEAEDGCYLTLLPLTSKVEGITTEGLYYPLRGEAIEMGSTRGVSNCFVEKKARISITSGILIAIKTRE”: the “soluble on expression in E. coli” value is listed as “not soluble”.

For “MAHHHHHHSLKILFVAAEGAPFAKTGGLGDVIGALPKSLVKNNNEVSVILPYYDVVDAKFGDQIEDLFYFFTNVGWRREYVGIKHIFRDGVDFYFIDNKHYFYRGQIYGEFDDGERFAYFQLAALEAMEKIQFIPDILHVHDYHTAMIPYLLKEKYHWINAYHGIKTVFTIHNIEFQGQFNPSMLGELFGVGDERYRDGTLRWNDCLNWMKAAVLYADRVTTVSPSYAKEIMTPEFGKGLDQIMRMESGKLSGVVNGIDTDLFDPETDPHLAVHFSKDDLSGKAKNKAALQERVGLPVREDVPLVGIVSRLTDQKGFQLVVDQLNTMMQLDLQIVLLGTGYADFENAFAWFGHAYPDKMSANITFDLELAQQIYAASDIFLMPSAFEPCGLSQMMAMRYGTLPLVHEVGGLRDTVIPYNEFEKTGTGFGFQDFSGYWLTKTLEAALDVYYNRKEDWKILQKNAMTTDFSWDTASQSYEHLYKELAEG”, the “soluble on expression in E. coli” value is recorded as “soluble”.

With “MGSDKIHHHHHHSGEKKESASEKGVETVLPDTKNEVSVMTLKKQIFNHELVSNGKISARGMADLRFESGEVIAHIWVKNGDRVRKGQKLAELDKFKLDNQLSQSEDALKKSELELRDVLISQGYPADDISQVPEETMKLAKVKSGYDQSKSQYEMSKYNAEHATLTAPFDGVVANLFSKPYNLASTSDVFCTVIDMQGMEVDFTVLESELPLIKNGDKVVIKPYSDAATVHEGSISEINPLVDDKGMVKVKARVNGAGKLFSGMNVRVSVHRSLGEQLVIPKSAVVLRSGKQVVFTLKDGKMAQWNYIHTALENADSYSVADGLTEGDTVIVSGNINLAHEAPVTIIE”, the “soluble on expression in E. coli” value is reported as “not soluble”.

On to “METRKAEGEVIVVGAGLAGLVAAAELADAGRRVLILDQEGEQNLGGQAHWSFGGLFFVDSPEQRRLGIRDSLDLARRDWETAAGFDRPEDHWPRKWAEAYLEFAAGEKREWLHRQGMRWFPAVGWAERGGAGAGLPGNSVPRFHITWGTGPGVLEPFVRRVREHQRAGRIEFRFRHRVRGLTLTAGRVTGVHGDVLEPSDVGRGETSSRVVTGDFELTAQAVLITSGGIGGNHELVRRYWPTERLGPAPEVMLSGVPRHVDGLLQQQVVAQGGSLINPDRMWHYTEGVRNWDPVWPQHGIRILPGPSSLWLDPSGRRLPFPHIPGASSYDTLRHITTHGYPHTWFLLNRAVIKREFGLSGSEQNPDLTGKDLRLTLRRASKHVPGPVQAFMDRGEDFVVRDNLRDLVRGMNELTGGELLDYATVEREVLDRDLQVHNVAGKDAQLAIVRGARAILSERLTRVAKPAPLLDPAQGPLIAVRLSVLTRKSLGGLETDLQGRVIGAGGQPLPDLYAAGEVAGFGGGGYHGYRALEGTFLGGCLFSGRAAGRAIAGAL”, for which the “soluble on expression in E. coli” value is listed as “not soluble”.

On to “MLPERVLEILREMKRERIKGASWLAKKGAEAFLTLAEELDESLLEDAIMELREEVVKVNPSMASLYNLARFIPVTNRRDILKSRALEFLRRMEEAKRELASIGAQLIDDGDVIITHSFSSTVLEIIRTAKERKKRFKVILTESSPDYEGLHLARELEFSGIEFEVITDAQMGLFCREASIAIVGADMITKDGYVVNKAGTYLLALACHENAIPFYVAAETYKFHPTLKSGDVMLMERDLIRGNVRIRNVLFDVTPWKYVRGIITELGIVIPPRDIQ”, for which the “soluble on expression in E. coli” value is “soluble”.

“MIYMSEIIEVIYEDGVLKPLKPLKIKGKKRLKIKIVNDDVEEFLKSMIIKKCKDIDYKKLKEAYYESFLEHHHHHH”: the “soluble on expression in E. coli” value was “not soluble”.

Take “FQGNPCECPRALHRVCGSDGNTYSNPCMLTCAKHEGNPDLVQVHEGPCDEHDHDF”: the “soluble on expression in E. coli” value was “soluble”.

“MKIVGIYLAAGKSRRTGPGLHKLYLPTGNTLLGNKALHTSLSSNLSDVIVVSNQPSWLLHYTQVERVHILSCEKSCLGQSYSLHCGLEKAESMNADGVVVMLADQPFITVKLLNSLIDSYEHLPQLDYVAASFQGIPQPPILFSKGIFPSLKKLKGDQGARSIFFDKSFQGKITVYSDAKLFYDVNTIEDYNVIKNSLLLEHHHHHH”: the “soluble on expression in E. coli” value is on record as “not soluble”.

For “MGSDKIHHHHHHMNWSQIISLVSAGNYMEVEKILQDYPYIVDMADHLREQKLKVIANLDTYVKRTMDSVEKLGGHAYLAKDKDEARKIIGDLVGEKKTVVFSKTNVAYEIGLREFLQERNNEVWETDLGEYLVQISRGWPTHIVAPALDMTREEAAKAVKKIDPSINENSKIEDIVAAVRKFLMSKYVKADVGITGANAVAADSGSVALVENEGNIRIDTVMPPMHIAVTGIDKIVPTMRDALDEVMVQAAYAGIFPPTYINVTSGPSSTADIELRRVSPATGPKDFHLVLIDNGRLEASKNEDLKEALLCIKCGRCYFSCPIYRTLGKEWISTKSPYNGPTGVMWNYITNKDPWPASYCVHSGGCKEVCPMKINIPEVIKYIKFIGSKQVGK”, the “soluble on expression in E. coli” value is recorded as “not soluble”.

Turning to “MGSDKIHHHHHHMPERVLNFRALFLHGLYKMDKPKAYCRLFLPSFLLLSACTVDISQPDPSATAVDAEAKTWAVKFQHQSSFTEQSIKEITAPDLKPGDLLFSSSLGVTSFGIRVFSTSSVSHVAIFLGDNNVAEATGAGVQIVSLKKAMKHSDKLFVLRVPDLTPQQATDITAFANKIKDSGYNYRGIVEFIPFMVTRQMCSLNPFSEDFRQQCVSGLAKAQLSSVGEGDKKSWFCSEFVTDAFAKAGHPLTLAQSGWISPADLMHMRIGDVSAFKPETQLQYVGHLKPGIYIKAGRFVGLTR”, the “soluble on expression in E. coli” value is given as “not soluble”.

Regarding “MSLNSFNLEGKVALVTGCKRGIGKAMAVALAQAGVDVIGVSASLESEGSDVAKAVEATGRKFSAYKCDFNSREAIYTFIEQVKAAHPVIDILVNNAGTILRAPAAEHGDSLWDEVINVNLNSQFILSRELGREMVKRGSGKVIFTASLLTFQGGITVPGYAASKGAIGQLTKALANEWAGSGVNVNAIAPGYIATDNTQALRDDPERATSILSRIPQNRWGKPEDFAGPVVFLASEAASYVNGSVMVVDGGWMGREGHHHHHH”, the “soluble on expression in E. coli” value is recorded as “not soluble”.

In the case of “MIRTDNLSDLASARDYWRTDKYISFVITFQFYLLLDTMSDSFNWPAGNNEARERLGEKFESLHLDSRISTSHAKPLSNADPVVVPIYHSSTYRFKTVDQFNEDNHGANFVYRRCGNPTTENVEVVINEIEGGAGSLLYNSGLAAISAVFLEFLSSGAHMIVMNPIYSGTSSFINETLARFGVEITSVDVEKEKDFAGAVEKAIRPNTKMIYFESIANPTMAVPDILGTIEVAKKYKILTCLDATFSSPYNIQPLKLGADISLHSCSKYIGGHTDVIAGVVTVSSYDNWKKLKLQQLTTGSSLSPYDAALLTRGLKTLGLRVDRISENAQKTAEFLESHPKVERVFYPGLPSHPQHQYAKQVMKQFAGMIAFDVGTAENAIKLVESLKLIIHAVSLGGTESLIEHPLSMSHGKHLLRYLDGPTVAPGLLRFSVGIENVEDIIGDLNDALEKL”, the “soluble on expression in E. coli” value was “not soluble”.

“MAHHHHHHMCVSELRRLRGHGRNVYIIYDVAKGGTPPPRHFAPTSGWGMIVVPSPNVANYDEWAKQLQAARVIVNCPDEVDVKAICTWMKQGQDPGKQAEYWRIVEERMKRVGPILRYIFDGESYIDPLGAVNDALLAMKPSDVGEYFTLGGEKTWCSEDPCHKLVKIVRARTDEGAEVFLNASISADIGFRTADRLKKEMCARDLLLLILRSHGALASQALEKFGLRAFMYGEPVSALVKGLNELRSPERDEAQDSVLKVNHQGHPTRAVGLA”: the “soluble on expression in E. coli” value is given as “soluble”.
